Assay results from patent publication US20230312755A1 (ANGITIA, published 2023).

Key:
human DKK1 [1] = biological target: T1, human DKK1 (human, UniProt O94907 32-266); assay: BLI (Gator), antibody on anti-hFc biosensor, antigen as analyte, 1:1 global fit
T1 construct: Analyte in BLI and the protein added in the reporter assay; also called hDKK1; Dickkopf-1
T1 sequence (looked up): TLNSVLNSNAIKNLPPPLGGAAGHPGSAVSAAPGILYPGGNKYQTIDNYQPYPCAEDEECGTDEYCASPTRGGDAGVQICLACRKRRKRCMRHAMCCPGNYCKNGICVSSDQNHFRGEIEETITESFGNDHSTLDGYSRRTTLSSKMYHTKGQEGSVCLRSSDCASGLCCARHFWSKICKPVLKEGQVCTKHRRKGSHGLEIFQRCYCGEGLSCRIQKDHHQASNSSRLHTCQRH
Protocol: (§1) Binding kinetics and affinities of anti-Sclerostin×anti-DKK1 and anti-Sclerostin×anti-RANKL bispecific antibodies were measured with Gator (Probe Life) bio-layer interferometry (BLI). Antibodies were immobilized on an anti-hFc biosensor, using a 5 μg/ml solution. Serial dilutions of sclerostin (from 1 μg/ml), DKK1 (from 2 μg/ml), or RANKL (from 4 μg/ml) by two folds in kinetics buffer (PBS, pH 7.4, 0.05% Tween-20, 0.2% BSA) were used as the analytes. Affinity (KD) and kinetic parameters (Kₒₙ and Koff) were calculated from a global fit (1:1) of the data using the Gator software.

human Sclerostin [2] = biological target: T2, human Sclerostin (human, UniProt Q9BQB4 24-213); assay: as above
T2 construct: Analyte of the BLI assays and the protein added in the reporter assays; also called hSclerostin; SOST
T2 sequence: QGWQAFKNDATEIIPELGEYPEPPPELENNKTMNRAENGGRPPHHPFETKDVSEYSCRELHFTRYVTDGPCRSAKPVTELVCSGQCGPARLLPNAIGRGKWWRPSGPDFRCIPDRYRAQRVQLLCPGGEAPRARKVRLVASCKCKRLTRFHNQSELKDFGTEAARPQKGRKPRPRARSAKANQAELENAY
Protocol: as §1

human DKK1 [3] = biological target: T1, human DKK1; assay: cell-based or functional assay
human Sclerostin [4] = biological target: T2, human Sclerostin; assay: cell-based or functional assay
[5] = biological target: T3, cynomolgus monkey Sclerostin (cynomolgus monkey, UniProt Q9BG78 24-213 (Chlorocebus aethiops entry)); assay: BLI (Gator), antibody on anti-hFc biosensor, Sclerostin as analyte, 1:1 global fit
T3 chain: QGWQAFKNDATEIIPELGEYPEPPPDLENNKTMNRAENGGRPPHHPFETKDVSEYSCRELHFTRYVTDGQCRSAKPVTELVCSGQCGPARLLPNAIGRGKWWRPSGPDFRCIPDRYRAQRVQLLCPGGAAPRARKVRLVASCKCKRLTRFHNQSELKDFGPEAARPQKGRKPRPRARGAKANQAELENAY
Protocol: The binding affinity of humanized anti-Sclerostin antibodies to human and cynomolgus monkey Sclerostin were determined with bio-layer interferometry using a Gator instrument (Probe Life). Antibodies were immobilized on an anti-hFc biosensor, using a […]. Serial dilutions of human Sclerostin and cynomolgus monkey Sclerostin from 4 μg/ml by two folds in kinetics buffer (PBS, pH 7.4, 0.05% Tween-20, 0.2% BSA, 10 μM biotin) were used as the analytes. Affinity (KD) and kinetic parameters (Kₒₙ and Koff) were calculated from a global fit (1:1) of the data using the Gator software.

human Sclerostin [6] = biological target: T2, human Sclerostin; assay: BLI (Gator), antibody on anti-hFc biosensor, antigen as analyte; koff at LOD, KD estimated
Protocol: as §1

human Sclerostin [7] = biological target: T2, human Sclerostin; assay: cell-based or functional assay; remark: listed apart in the source
[8] = biological target: T4, His-tagged human Sclerostin (NCBI reference No. NP_079513.1) (human, UniProt Q9BQB4 24-213); assay: ELISA, plate coated with His-tagged human Sclerostin
T4 construct: also called mouse His-tagged human Sclerostin; not shown: His tag
T4 sequence: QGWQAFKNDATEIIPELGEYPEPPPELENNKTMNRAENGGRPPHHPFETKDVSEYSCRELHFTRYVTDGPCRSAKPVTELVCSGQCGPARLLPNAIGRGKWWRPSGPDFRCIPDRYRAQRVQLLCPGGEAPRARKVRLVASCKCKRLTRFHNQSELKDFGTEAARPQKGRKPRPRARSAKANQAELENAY
Protocol: The ability of antibodies to specifically bind Sclerostin was determined by an ELISA capture assay. Plates were coated, in a 96-well half-area, with 100 μl/well of mouse His-tagged human Sclerostin (NCBI reference No. is NP_079513.1) [[…]], in coating buffer (PBS, pH 7.4), and incubated at RT for one hour, or 4° C. overnight. The plates were washed once with 100 μl/well of washing solution (PBS containing 0.2% Tween20, BIO-RAD). Plates were then incubated in blocking solution (PBS containing 1% BSA, 1% goat serum and 0.5% Tween20; 100 μl/well) for one hour at room temperature (RT). Anti-Sclerostin antibodies at various concentrations (1000, 333.3, 111.1, 37.0, 12.3, 4.1, 1.4, 0.5, 0.15, 0.05 ng/ml), a positive control antibody Romosozumab or non-Sclerostin related IgG (human or rat IgG, negative control), were then added to each well in 20 μl/well of blocking solution, and plates were incubated at RT for one hour. NeutrAvidin HRP (Pierce, Catalog #31001) diluted in blocking solution (1:50,000 dilution) was added at to each well ([…]), and the plates were incubated at RT for one hour prior to three washes with […] of washing solution. SuperSignal ELISA Femto (ThermoFisher Scientific, Catalog #37074) working solution was added to the plates ([…]), and the signal was read using a luminometer at 425 nm.

B1: BAP0039 (bispecific antibody, human IgG4 S228P, kappa)
heavy: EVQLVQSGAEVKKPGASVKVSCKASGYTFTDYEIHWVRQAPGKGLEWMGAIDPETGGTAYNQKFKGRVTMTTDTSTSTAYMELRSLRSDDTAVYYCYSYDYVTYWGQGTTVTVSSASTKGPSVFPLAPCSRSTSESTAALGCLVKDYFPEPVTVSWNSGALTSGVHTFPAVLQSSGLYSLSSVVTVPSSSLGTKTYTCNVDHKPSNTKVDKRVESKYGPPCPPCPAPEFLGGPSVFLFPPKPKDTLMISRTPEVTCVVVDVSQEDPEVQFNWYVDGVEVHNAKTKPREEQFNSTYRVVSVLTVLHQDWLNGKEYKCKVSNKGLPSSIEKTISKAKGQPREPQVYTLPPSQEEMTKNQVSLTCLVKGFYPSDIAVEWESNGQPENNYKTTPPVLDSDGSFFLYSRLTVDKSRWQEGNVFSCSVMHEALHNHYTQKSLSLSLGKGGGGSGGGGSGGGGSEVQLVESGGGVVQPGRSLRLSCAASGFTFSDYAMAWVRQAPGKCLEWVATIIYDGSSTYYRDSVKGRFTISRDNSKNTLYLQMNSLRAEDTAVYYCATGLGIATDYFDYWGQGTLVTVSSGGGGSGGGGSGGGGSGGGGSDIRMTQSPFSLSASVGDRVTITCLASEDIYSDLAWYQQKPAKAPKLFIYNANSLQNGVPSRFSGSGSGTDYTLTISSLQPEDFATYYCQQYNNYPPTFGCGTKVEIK
light: DVVMTQSPLSLSVSPGERASLSCKSSQSLLYSDGRTYLNWYLQKPGQSPQRLIYLVSKLDSGVPDRFSGSGSGTDFTLKISRVQSEDVGVYYCWQGTHLPHTFGGGTKVEIKRTVAAPSVFIFPPSDEQLKSGTASVVCLLNNFYPREAKVQWKVDNALQSGNSQESVTEQDSKDSTYSLSSTLTLSKADYEKHKVYACEVTHQGLSSPVTKSFNRGEC
notes: Anti-DKK1 scFv (VH-VL) fused to the C-terminus of the heavy chains of the anti-Sclerostin full length antibody (hAb-1)
Kd (human DKK1 [1]): 0.14 nM
koff (human DKK1 [1]): 4.32e-05 s⁻¹
kon (human DKK1 [1]): 309000 M⁻¹ s⁻¹
Kd (human Sclerostin [2]): 0.052 nM
koff (human Sclerostin [2]): 9.74e-05 s⁻¹
kon (human Sclerostin [2]): 1.88e+06 M⁻¹ s⁻¹
EC50, DKK1 neutralization activity in HEK293/TCF/LEF/Wnt1 reporter gene assay (human DKK1 [3]): 20.9 nM
EC50, Sclerostin neutralization activity in HEK293/TCF/LEF/Wnt1 reporter gene assay (human Sclerostin [4]): 26.7 nM

B2: Romosozumab (antibody, V domains shown)
VH: EVQLVQSGAEVKKPGASVKVSCKASGYTFTDYNMHWVRQAPGQGLEWMGEINPNSGGAGYNQKFKGRVTMTTDTSTSTAYMELRSLRSDDTAVYYCARLGYDDIYDDWYFDVWGQGTTVTVSS
VL: DIQMTQSPSSLSASVGDRVTITCRASQDISNYLNWYQQKPGKAPKLLIYYTSRLLSGVPSRFSGSGSGTDFTLTISSLQPEDFATYYCQQGDTLPYTFGGGTKVEIK
Kd [5]: 0.35 nM
koff [5]: 0.000239 s⁻¹
kon [5]: 755000 M⁻¹ s⁻¹

B3: BAP0037 (bispecific antibody, human IgG4 S228P, kappa)
heavy: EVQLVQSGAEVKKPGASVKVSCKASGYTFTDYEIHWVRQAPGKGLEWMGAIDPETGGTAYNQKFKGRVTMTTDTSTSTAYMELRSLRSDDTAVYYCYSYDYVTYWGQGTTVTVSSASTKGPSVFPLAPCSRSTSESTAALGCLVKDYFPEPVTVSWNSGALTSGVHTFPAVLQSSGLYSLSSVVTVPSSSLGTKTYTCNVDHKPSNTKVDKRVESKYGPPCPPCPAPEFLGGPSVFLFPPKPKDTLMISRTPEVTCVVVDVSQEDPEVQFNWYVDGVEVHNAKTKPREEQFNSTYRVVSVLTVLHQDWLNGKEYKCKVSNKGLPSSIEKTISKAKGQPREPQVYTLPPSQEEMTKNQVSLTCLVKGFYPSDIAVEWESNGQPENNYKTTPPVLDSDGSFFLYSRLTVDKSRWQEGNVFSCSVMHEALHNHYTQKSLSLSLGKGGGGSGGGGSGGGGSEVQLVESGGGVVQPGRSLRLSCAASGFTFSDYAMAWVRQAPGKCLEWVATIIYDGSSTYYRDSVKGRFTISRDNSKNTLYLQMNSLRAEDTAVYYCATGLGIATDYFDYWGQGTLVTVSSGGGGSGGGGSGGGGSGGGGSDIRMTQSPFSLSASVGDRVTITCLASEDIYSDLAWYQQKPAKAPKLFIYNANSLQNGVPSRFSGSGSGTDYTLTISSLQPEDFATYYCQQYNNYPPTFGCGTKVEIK
light: DIQMTQSPSSLSASVGDRVTITCRSSQSLLYSDGRTYLNWYQQKPGKSPKRLIYLVSKLDSGVPDRFSGSGSGTDFTLTISSLQPEDFATYYCWQGTHLPHTFGGGTKVEIKRTVAAPSVFIFPPSDEQLKSGTASVVCLLNNFYPREAKVQWKVDNALQSGNSQESVTEQDSKDSTYSLSSTLTLSKADYEKHKVYACEVTHQGLSSPVTKSFNRGEC
notes: Anti-DKK1 scFv (VH-VL) fused to the C-terminus of the heavy chains of the anti-Sclerostin full length antibody (hAb-2)
Kd (human DKK1 [1]): 1.01 nM
koff (human DKK1 [1]): 0.000301 s⁻¹
kon (human DKK1 [1]): 297000 M⁻¹ s⁻¹
kon (human Sclerostin [2]): 1.88e+06 M⁻¹ s⁻¹
Kd (human Sclerostin [6]): ~0.01 nM
EC50, DKK1 neutralization activity in HEK293/TCF/LEF/Wnt1 reporter gene assay (human DKK1 [3]): 24.1 nM
EC50, Sclerostin neutralization activity in HEK293/TCF/LEF/Wnt1 reporter gene assay (human Sclerostin [4]): 23.6 nM

B4: 65B12C9 (antibody, V domains shown)
VH: QVQLQQPGAELVKPGASVKLSCKASGYTFTSYWMHWVKQRPGQGLEWIGMIHPNSGSSNYNEKFKSKATLTVDKSSSTAYMQLSSLTSEDSAVYYCANDYDDEGFAYWGQGTLVTVSA
VL: SIVMTQTPKFLLVSAGDRVTITCKASQSVSNDVAWYQQKPGQSPKLLIYYASNRCTGVPDRFTGSGYGTDFTFTISTVQAEDLAVYFCQQDYSSPWTFGGGTKLEIK
notes: Murine monoclonal antibody from a hybridoma
EC50, Sclerostin-neutralisation activity in HEK293/TCF/LEF/Wnt1 cells (luciferase reporter) (human Sclerostin [7]): 152 nM
EC50 [8]: 0.04 nM

B5: 91F6D10 (antibody, V domains shown)
VH: QVQLQQSGAELVRPGASVTLSCKASGYTFTDYEMHWVKQTPVHGLEWIGAIDPETGGTAYNQKFKAKAILTADRSSSTAYMELRSLTSEDSAVYYCFSYDYVSYWGQGTLVTVSA
VL: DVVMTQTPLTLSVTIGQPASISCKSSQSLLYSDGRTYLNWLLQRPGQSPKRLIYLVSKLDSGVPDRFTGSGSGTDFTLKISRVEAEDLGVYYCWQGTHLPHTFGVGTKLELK
notes: as for B4
EC50, Sclerostin-neutralisation activity in HEK293/TCF/LEF/Wnt1 cells (luciferase reporter) (human Sclerostin [7]): 60.6 nM
EC50 [8]: 0.06 nM

B6: 51E8D4 (antibody, V domains shown)
VH: QVQLQQSGAELVRPGASVTLSCKASGYTFTDFEIHWMKQTPVPGLEWIGAIDPETGGTAYNQKFKGKALLTADKSSSTAYMDLRSLTSEDSAVYFCFSYDYVSYWGQGTLVTVSA
VL: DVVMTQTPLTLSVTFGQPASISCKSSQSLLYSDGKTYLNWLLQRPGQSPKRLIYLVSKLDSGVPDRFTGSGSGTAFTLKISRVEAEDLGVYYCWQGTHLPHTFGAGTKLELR
notes: as for B4
EC50, Sclerostin-neutralisation activity in HEK293/TCF/LEF/Wnt1 cells (luciferase reporter) (human Sclerostin [7]): 63.4 nM
EC50 [8]: 0.07 nM

B7: 94B12D3 (antibody, V domains shown)
VH: QVQLQQSGAELVRPGASVTLSCKASGYTFTDYEIHWVKQTPVHGLEWIGAIDPETGGTAYNQKFKAKAILTADRSSSTAYMELRSLTSEDSAVYYSFSYDYVSYWGQGTLVTVSA
VL: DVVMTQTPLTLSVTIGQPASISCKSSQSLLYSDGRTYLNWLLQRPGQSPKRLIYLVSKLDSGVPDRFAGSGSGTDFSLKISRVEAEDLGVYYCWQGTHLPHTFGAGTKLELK
notes: as for B4
EC50, Sclerostin-neutralisation activity in HEK293/TCF/LEF/Wnt1 cells (luciferase reporter) (human Sclerostin [7]): 62.8 nM
EC50 [8]: 0.04 nM
